Results: US20240317834A1, “COMPOSITIONS AND METHODS FOR NEUROLOGICAL DISEASES” (CODA BIOTHERAPEUTICS, INC., priority 2020, published 2024)

Experiments:
Type in all cases: cell-based
rat hippocampal neurons [1] = experiment: Spontaneous firing rate of rat hippocampal neurons (current clamp)
Method: For manual patch clamp experiments, Cells plated on coverslips were visualized at 10× and 40× on an inverted fluorescence microscope (Olympus). Recordings were made with an Axopatch 200B amplifier and Digidata 1550B (Molecular Devices) at RT using 3-6 MOhm glass patch electrodes (Sutter, BF150-86-10). Unless otherwise stated, recordings were made in extracellular solution (ECS) containing: 140 mM sodium chloride, 4 mM potassium chloride, 1 mM magnesium chloride, 2 mM calcium chloride, 10 mM HEPES, and 10 mM D-(+)-glucose (pH=7.3 with sodium hydroxide, osmolarity=305−315 mOsm). An 8-line reservoir (AutoMate Scientific) in combination with an 8-channel zero-dead-volume perfusion pencil (AutoMate Scientific) was used for perfusion. Data was acquired using pClamp software (Molecular Devices). Traces were either analyzed in Clampfit (Molecular Devices) or using custom Python code. […]
Spontaneous activity was recorded in gapfree mode, in the presence and absence of a compound. […] For both methods, minimum height, average height, maximum height were measured and frequency was calculated as the number of events in the epoch divided by the length of time of the epoch. For Clampfit, the resting membrane potential was measured at 3 points between events and averaged for each epoch. […] For both methods, membrane potential was corrected for the calculated liquid junction potential. […]

Lenti-X 293T cells = experiment: YFP fluorescence quenching anion reporter plate reader assay of engineered receptors stimulated with acetylcholine or a non-native ligand
Procedure, shortened: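 Lenti-X 293T cells carrying a YFP anion reporter were transiently transfected with channel DNA and assayed the next day in HEPES-buffered ECS at pH 7.2. Ligand (acetylcholine or non-native ligand) was added in NaI-substituted ECS. Percent quench was the mean of the last 10 s relative to the 15 s pre-addition baseline.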

rat hippocampal neurons [2] = experiment: Evoked rheobase shift in rat hippocampal neurons (current clamp)
Method: For manual patch clamp experiments, Cells plated on coverslips were visualized at 10× and 40× on an inverted fluorescence microscope (Olympus). Recordings were made with an Axopatch 200B amplifier and Digidata 1550B (Molecular Devices) at RT using 3-6 MOhm glass patch electrodes (Sutter, BF150-86-10). Unless otherwise stated, recordings were made in extracellular solution (ECS) containing: 140 mM sodium chloride, 4 mM potassium chloride, 1 mM magnesium chloride, 2 mM calcium chloride, 10 mM HEPES, and 10 mM D-(+)-glucose (pH=7.3 with sodium hydroxide, osmolarity=305−315 mOsm). An 8-line reservoir (AutoMate Scientific) in combination with an 8-channel zero-dead-volume perfusion pencil (AutoMate Scientific) was used for perfusion. Data was acquired using pClamp software (Molecular Devices). Traces were either analyzed in Clampfit (Molecular Devices) or using custom Python code. Plotting and statistics were performed in GraphPad Prism.
No holding current was applied to the membrane for cells included in the final datasets. Data acquisition settings and analysis methods were the same as for the DRG rheobase experiments.

B1: CODA1140: engineered chimeric LGIC receptor, R101F, L131N, S172D in SEQ ID NO: 33 (protein)
chain: MRCSPGGVWLALAASLLHVSLQGEFQRKLYKELVKNYNPLERPVANDSQPLTVYFSLSLLQIMDVDEKNQVLTTNIWLQMSWTDHYLQWNVSEYPGVKTVFFPDGQIWKPDILLYNSADERFDATFHTNVNVNSSGHCQYLPPGIFKSSCPMDLKNFPMDVQTCKLKFGSWDYGGWSLDLQMQEADISGYIPNGEWDLVGIPGKRSERFYECCKEPYPDVTFTVTMRRRMGYYLIQMYIPSLLIVILSWISFWINMDAAPARVGLGITTVLTMTTQSSGSRASLPKVSYVKAIDIWMAVCLLFVFSALLEYAAVNFVSRQHKELLRFRRKRRHHKSPMLNLFQEDEAGEGRFNFSAYGMGPACLQAKDGISVKGANNSNTTNPPPAPSKSPEEMRKLFIQRAKKIDKISRIGFPMAFLIFNMFYWIIYKIVRREDVHNQ
modifications: synthetic sequence of chimeric LGIC
- Firing Rate Spontaneous; Rat Hippocampal Neurons, +CNL002 @ EC90 (rat hippocampal neurons [1]; +CNL002 @ EC90): 0.71 ± 0.29 Hz
- Firing Rate Spontaneous; Rat Hippocampal Neurons, Baseline (rat hippocampal neurons [1]; Baseline, no ligand): 3.29 ± 0.75 Hz
- YFP fluorescence quenching using CNL001 (Lenti-X 293T cells; 1 nM CNL001, first column): 52.592%
- YFP fluorescence quenching using CNL001 (Lenti-X 293T cells; 1 nM CNL001, second column): 61.248%
- YFP fluorescence quenching using CNL002 (Lenti-X 293T cells; 1 nM CNL002): 0.337%
- YFP fluorescence quenching using Varenicline (Lenti-X 293T cells; 3 nM var, first column): −6.169
- YFP fluorescence quenching using Varenicline (Lenti-X 293T cells; 3 nM var, second column): −10.445
- YFP fluorescence quenching using CNL001 (Lenti-X 293T cells; 10 nM CNL001, first column): 71.678%
- YFP fluorescence quenching using CNL001 (Lenti-X 293T cells; 10 nM CNL001, second column): 71.881%
- YFP fluorescence quenching using CNL002 (Lenti-X 293T cells; 10 nM CNL002): 59.894%
- YFP fluorescence quenching using Varenicline (Lenti-X 293T cells; 30 nM var, first column): −9.679
- YFP fluorescence quenching using Varenicline (Lenti-X 293T cells; 30 nM var, second column): −10.878
- YFP fluorescence quenching using CNL001 (Lenti-X 293T cells; 50 nM CNL001, first column): 73.807%
- YFP fluorescence quenching using CNL001 (Lenti-X 293T cells; 50 nM CNL001, second column): 75.649%
- YFP fluorescence quenching using CNL002 (Lenti-X 293T cells; 50 nM CNL002): 76.501%
- YFP fluorescence quenching using ABT-126 (Lenti-X 293T cells; 50 nM abt): −7.87%
- YFP fluorescence quenching using CNL001 (Lenti-X 293T cells; 100 nM CNL001, first column): 76%
- YFP fluorescence quenching using CNL001 (Lenti-X 293T cells; 100 nM CNL001, second column): 76.329%
- YFP fluorescence quenching using CNL002 (Lenti-X 293T cells; 100 nM CNL002): 79.03%
- YFP fluorescence quenching using ABT-126 (Lenti-X 293T cells; 100 nM abt): −5.35%
- YFP fluorescence quenching using ABT-126 (Lenti-X 293T cells; 300 nM abt): −3.67%
- YFP fluorescence quenching using Varenicline (Lenti-X 293T cells; 300 nM var, first column): −9.572
- YFP fluorescence quenching using Varenicline (Lenti-X 293T cells; 300 nM var, second column): −8.873
- YFP fluorescence quenching using Varenicline (Lenti-X 293T cells; 500 nM var, first column): −14.656
- YFP fluorescence quenching using Varenicline (Lenti-X 293T cells; 500 nM var, second column): −11.304
- YFP fluorescence quenching using CNL001 (Lenti-X 293T cells; 1 uM CNL001, first column): 76.168%
- YFP fluorescence quenching using CNL001 (Lenti-X 293T cells; 1 uM CNL001, second column): 74.076%
- YFP fluorescence quenching using CNL002 (Lenti-X 293T cells; 1 uM CNL002): 82.85%
- YFP fluorescence quenching using ABT-126 (Lenti-X 293T cells; 1 uM abt): 3.64%
- YFP fluorescence quenching using Varenicline (Lenti-X 293T cells; 1 uM var, first column): −13.996
- YFP fluorescence quenching using Varenicline (Lenti-X 293T cells; 1 uM var, second column): −16.128
- YFP fluorescence quenching using ABT-126 (Lenti-X 293T cells; 10 uM abt): 5.91%
- percent quench of YFP fluorescence, 10 uM ach (Lenti-X 293T cells; acetylcholine 10 uM): −20.07%
- percent quench of YFP fluorescence, 30 uM ach (Lenti-X 293T cells; acetylcholine 30 uM): −16.92%
- percent quench of YFP fluorescence, 100 uM ach (Lenti-X 293T cells; acetylcholine 100 uM): −25.8%
- percent quench of YFP fluorescence, 300 uM ach (Lenti-X 293T cells; acetylcholine 300 uM): −11.21%
- percent quench of YFP fluorescence, 1 mM ach (Lenti-X 293T cells; acetylcholine 1 mM): 9.02%
- percent quench of YFP fluorescence, 3 mM ach (Lenti-X 293T cells; acetylcholine 3 mM): 45%
- Rheobase Shift Evoked; Rat Hippocampal Neurons, +CNL002 @ EC90 (rat hippocampal neurons [2]; +CNL002 @ EC90): 296.9 ± 72.65 pA
- Rheobase Shift Evoked; Rat Hippocampal Neurons, Baseline (rat hippocampal neurons [2]; Baseline, no ligand): 40.63 ± 10.50 pA
